Our source for the Kd values is PMC10098051.

Broadly, the Kd is the equilibrium constant for the complex coming apart.

This experiment concerns the target PeSy1‐His recombinant protein (Saccharothrix yanglingensis Hhs.015). The experiment can be described thus: MST; PeSy1‐His labelled with protein labelling kit RED, in PBST (PBS with 0.05% Tween 20); serially diluted RSy1‐GST in 16 standard treated capillaries; Monolith NT.115, excitation power 40%, MST power medium; GST as reference control; three biological repeats.

Take “RSy1‐GST recombinant protein (natural protein)”: the Kd came to 8.77 µM.
